Data from the supplement of paper PMC5998384.

What was measured:
HeLa Kyoto [1] = test: solubility change mitosis vs G1/S (difference of NP-40 vs SDS log2 ratios) (log2 ratio difference); higher = more soluble in mitosis
HeLa Kyoto [2] = test: solubility in G1/S (NP-40 vs SDS abundance) (log2 ratio); higher = more soluble; details: cell cycle stage: G1/S
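For solubility change mitosis vs G1/S (difference of NP-40 vs SDS log2 ratios) in this document: synchronized HeLa Kyoto cells (double thymidine block for G1/S, nocodazole release for mitosis), protein amounts in NP-40 versus SDS lysates quantified by mass spectrometry, three biological replicates.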
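For solubility in G1/S (NP-40 vs SDS abundance) in this document: HeLa Kyoto cells arrested at G1/S by double thymidine block, proteins quantified by TMT10plex mass spectrometry in mild NP-40 versus SDS extracts, three biological replicates.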

Sequence | solubility change mitosis (log2) (HeLa Kyoto [1]) | solubility in G1/S (log2) (HeLa Kyoto [2])
MQARYSVSSPNSLGVVPYLGGEQSYYRAAAAAAGGGYTAMPAPMSVYSHPAHAEQYPGGMARAYGPYTPQPQPKDMVKPPYSYIALITMAIQNAPDKKITLNGIYQFIMDRFPFYRDNKQGWQNSIRHNLSLNECFVKVPRDDKKPGKGSYWTLDPDSYNMFENGSFLRRRRRFKKKDAVKDKEEKDRLHLKEPPPPGRQPPPAPPEQADGNAPGPQPPPVRIQDIKTENGTCPSPPQPLSPAAALGSGSAAAVPKIESPDSSSSSLSSGSSPPGSLPSARPLSLDGADSAPPPPAPSAPPPHHSQGFSVDNIMTSLRGSPQSAAAELSSGLLASAAASSRAGIAPPLALGAYSPGQSSLYSSPCSQTSSAGSSGGGGGGAGAAGGAGGAGTYHCNLQAMSLYAAGERGGHLQGAPGGAGGSAVDDPLPDYSLPPVTSSSSSSLSHGGGGGGGGGGQEAGHHPAAHQGRLTSWYLNQAGGDLGHLASAAAAAAAAGYPGQQQNFHSVREMFESQRIGLNNSPVNGNSSCQMAFPSSQSLYRTSGAFVYDCSKF [FOXC1] | -0.0439 | 0.0673
MEDLEEDVRFIVDETLDFGGLSPSDSREEEDITVLVTPEKPLRRGLSHRSDPNAVAPAPQGVRLSLGPLSPEKLEEILDEANRLAAQLEQCALQDRESAGEGLGPRRVKPSPRRETFVLKDSPVRDLLPTVNSLTRSTPSPSSLTPRLRSNDRKGSVRALRATSGKRPSNMKRESPTCNLFPASKSPASSPLTRSTPPVRGRAGPSGRAAASEETRAAKLRVSGSGEFVGLTLKFLHPSPPGPPTPIRSVLAPQPSTSNSQRLPRPQGAAAKSSSQLPIPSAIPRPASRMPLTSRSVPPGRGALPPDSLSTRKGLPRPSTAGHRVRESGHKVPVSQRLNLPVMGATRSNLQPPRKVAVPGPTR [PSRC1] | 0.803 | -0.152
MAHYKAADSKREQFRRYLEKSGVLDTLTKVLVALYEEPEKPNSALDFLKHHLGAATPENPEIELLRLELAEMKEKYEAIVEENKKLKAKLAQYEPPQEEKRAE [MYCBP] | 0.968 | -0.523
MEIAPQEAPPVPGADGDIEEAPAEAGSPSPASPPADGRLKAAAKRVTFPSDEDIVSGAVEPKDPWRHAQNVTVDEVIGAYKQACQKLNCRQIPKLLRQLQEFTDLGHRLDCLDLKGEKLDYKTCEALEEVFKRLQFKVVDLEQTNLDEDGASALFDMIEYYESATHLNISFNKHIGTRGWQAAAHMMRKTSCLQYLDARNTPLLDHSAPFVARALRIRSSLAVLHLENASLSGRPLMLLATALKMNMNLRELYLADNKLNGLQDSAQLGNLLKFNCSLQILDLRNNHVLDSGLAYICEGLKEQRKGLVTLVLWNNQLTHTGMAFLGMTLPHTQSLETLNLGHNPIGNEGVRHLKNGLISNRSVLRLGLASTKLTCEGAVAVAEFIAESPRLLRLDLRENEIKTGGLMALSLALKVNHSLLRLDLDREPKKEAVKSFIETQKALLAEIQNGCKRNLVLAREREEKEQPPQLSASMPETTATEPQPDDEPAAGVQNGAPSPAPSPDSDSDSDSDGEEEEEEEGERDETPCPALVPPTDSLGPGDRSPPGSPSTPTEQRISVSSPGRGHKVFVVTRVESPPERAEPPASPTPPSPPPPPSPPASPSLPPAGAIDTRDTGSSEPQPPPEPPRSGPPLPNGLKPEFALALPPEPPPGPEVKGGSCGLEHELSCSKNEKELEELLLEASQESGQETL [PPP1R37] | -0.284 | 0.0581
MMFRSDRMWSCHWKWKPSPLLFLFALYIMCVPHSVWGCANCRVVLSNPSGTFTSPCYPNDYPNSQACMWTLRAPTGYIIQITFNDFDIEEAPNCIYDSLSLDNGESQTKFCGATAKGLSFNSSANEMHVSFSSDFSIQKKGFNASYIRVAVSLRNQKVILPQTSDAYQVSVAKSISIPELSAFTLCFEATKVGHEDSDWTAFSYSNASFTQLLSFGKAKSGYFLSISDSKCLLNNALPVKEKEDIFAESFEQLCLVWNNSLGSIGVNFKRNYETVPCDSTISKVIPGNGKLLLGSNQNEIVSLKGDIYNFRLWNFTMNAKILSNLSCNVKGNVVDWQNDFWNIPNLALKAESNLSCGSYLIPLPAAELASCADLGTLCQATVNSPSTTPPTVTTNMPVTNRIDKQRNDGIIYRISVVIQNILRHPEVKVQSKVAEWLNSTFQNWNYTVYVVNISFHLSAGEDKIKVKRSLEDEPRLVLWALLVYNATNNTNLEGKIIQQKLLKNNESLDEGLRLHTVNVRQLGHCLAMEEPKGYYWPSIQPSEYVLPCPDKPGFSASRICFYNATNPLVTYWGPVDISNCLKEANEVANQILNLTADGQNLTSANITNIVEQVKRIVNKEENIDITLGSTLMNIFSNILSSSDSDLLESSSEALKTIDELAFKIDLNSTSHVNITTRNLALSVSSLLPGTNAISNFSIGLPSNNESYFQMDFESGQVDPLASVILPPNLLENLSPEDSVLVRRAQFTFFNKTGLFQDVGPQRKTLVSYVMACSIGNITIQNLKDPVQIKIKHTRTQEVHHPICAFWDLNKNKSFGGWNTSGCVAHRDSDASETVCLCNHFTHFGVLMDLPRSASQLDARNTKVLTFISYIGCGISAIFSAATLLTYVAFEKLRRDYPSKILMNLSTALLFLNLLFLLDGWITSFNVDGLCIAVAVLLHFFLLATFTWMGLEAIHMYIALVKVFNTYIRRYILKFCIIGWGLPALVVSVVLASRNNNEVYGKESYGKEKGDEFCWIQDPVIFYVTCAGYFGVMFFLNIAMFIVVMVQICGRNGKRSNRTLREEVLRNLRSVVSLTFLLGMTWGFAFFAWGPLNIPFMYLFSIFNSLQGLFIFIFHCAMKENVQKQWRQHLCCGRFRLADNSDWSKTATNIIKKSSDNLGKSLSSSSIGSNSTYLTSKSKSSSTTYFKRNSHTDNVSYEHSFNKSGSLRQCFHGQVLVKTGPC [GPR126] | -0.0428 | -0.117
MALFVRLLALALALALGPAATLAGPAKSPYQLVLQHSRLRGRQHGPNVCAVQKVIGTNRKYFTNCKQWYQRKICGKSTVISYECCPGYEKVPGEKGCPAALPLSNLYETLGVVGSTTTQLYTDRTEKLRPEMEGPGSFTIFAPSNEAWASLPAEVLDSLVSNVNIELLNALRYHMVGRRVLTDELKHGMTLTSMYQNSNIQIHHYPNGIVTVNCARLLKADHHATNGVVHLIDKVISTITNNIQQIIEIEDTFETLRAAVAASGLNTMLEGNGQYTLLAPTNEAFEKIPSETLNRILGDPEALRDLLNNHILKSAMCAEAIVAGLSVETLEGTTLEVGCSGDMLTINGKAIISNKDILATNGVIHYIDELLIPDSAKTLFELAAESDVSTAIDLFRQAGLGNHLSGSERLTLLAPLNSVFKDGTPPIDAHTRNLLRNHIIKDQLASKYLYHGQTLETLGGKKLRVFVYRNSLCIENSCIAAHDKRGRYGTLFTMDRVLTPPMGTVMDVLKGDNRFSMLVAAIQSAGLTETLNREGVYTVFAPTNEAFRALPPRERSRLLGDAKELANILKYHIGDEILVSGGIGALVRLKSLQGDKLEVSLKNNVVSVNKEPVAEPDIMATNGVVHVITNVLQPPANRPQERGDELADSALEIFKQASAFSRASQRSVRLAPVYQKLLERMKH [TGFBI] | -0.149 | -0.072
MAEHAPRRCCLGWDFSTQQVKVVAVDAELNVFYEESVHFDRDLPEFGTQGGVHVHKDGLTVTSPVLMWVQALDIILEKMKASGFDFSQVLALSGAGQQHGSIYWKAGAQQALTSLSPDLRLHQQLQDCFSISDCPVWMDSSTTAQCRQLEAAVGGAQALSCLTGSRAYERFTGNQIAKIYQQNPEAYSHTERISLVSSFAASLFLGSYSPIDYSDGSGMNLLQIQDKVWSQACLGACAPHLEEKLSPPVPSCSVVGAISSYYVQRYGFPPGCKVVAFTGDNPASLAGMRLEEGDIAVSLGTSDTLFLWLQEPMPALEGHIFCNPVDSQHYMALLCFKNGSLMREKIRNESVSRSWSDFSKALQSTEMGNGGNLGFYFDVMEITPEIIGRHRFNTENHKVAAFPGDVEVRALIEGQFMAKRIHAEGLGYRVMSKTKILATGGASHNREILQVLADVFDAPVYVIDTANSACVGSAYRAFHGLAGGTDVPFSEVVKLAPNPRLAATPSPGASQVYEALLPQYAKLEQRILSQTRGPPE [XYLB] | 0.111 | -0.242
MNGTRNWCTLVDVHPEDQAAGSVDILRLTLQGELTGDELEHIAQKAGRKTYAMVSSHSAGHSLASELVESHDGHEEIIKVYLKGRSGDKMIHEKNINQLKSEVQYIQEARNCLQKLREDISSKLDRNLGDSLHRQEIQVVLEKPNGFSQSPTALYSSPPEVDTCINEDVESLRKTVQDLLAKLQEAKRQHQSDCVAFEVTLSRYQREAEQSNVALQREEDRVEQKEAEVGELQRRLLGMETEHQALLAKVREGEVALEELRSNNADCQAEREKAATLEKEVAGLREKIHHLDDMLKSQQRKVRQMIEQLQNSKAVIQSKDATIQELKEKIAYLEAENLEMHDRMEHLIEKQISHGNFSTQARAKTENPGSIRISKPPSPKPMPVIRVVET [TUFT1] | 0.112 | 0.415
MERKRWECPALPQGWEREEVPRRSGLSAGHRDVFYYSPSGKKFRSKPQLARYLGGSMDLSTFDFRTGKMLMSKMNKSRQRVRYDSSNQVKGKPDLNTALPVRQTASIFKQPVTKITNHPSNKVKSDPQKAVDQPRQLFWEKKLSGLNAFDIAEELVKTMDLPKGLQGVGPGCTDETLLSAIASALHTSTMPITGQLSAAVEKNPGVWLNTTQPLCKAFMVTDEDIRKQEELVQQVRKRLEEALMADMLAHVEELARDGEAPLDKACAEDDDEEDEEEEEEEPDPDPEMEHV [MBD3] | 0.629 | 0.334
MNQFGPSALINLSNFSSIKPEPASTPPQGSMANSTAVVKIPGTPGAGGRLSPENNQVLTKKKLQDLVREVDPNEQLDEDVEEMLLQIADDFIESVVTAACQLARHRKSSTLEVKDVQLHLERQWNMWIPGFGSEEIRPYKKACTTEAHKQRMALIRKTTKK [TAF12] | 0.151 | -0.0469
MGNIFGNLLKSLIGKKEMRILMVGLDAAGKTTILYKLKLGEIVTTIPTIGFNVETVEYKNISFTVWDVGGQDKIRPLWRHYFQNTQGLIFVVDSNDRERVNEAREELMRMLAEDELRDAVLLVFANKQDLPNAMNAAEITDKLGLHSLRHRNWYIQATCATSGDGLYEGLDWLANQLKNKK [ARF3] | -0.299 | -0.169
MNALLEQKEQQERLREAAALGDIREVQKLVESGVDVNSQNEVNGWTCLHWACKRNHGQVVSYLLKSGADKEILTTKGEMPVQLTSRREIRKIMGVEEEDDDDDDDDNLPQLKKESELPFVPNYLANPAFPFIYTPTAEDSAQMQNGGPSTPPASPPADGSPPLLPPGEPPLLGTFPRDHTSLALVQNGDVSAPSAILRTPESTKPGPVCQPPVSQSRSLFSSVPSKPPMSLEPQNGTYAGPAPAFQPFFFTGAFPFNMQELVLKVRIQNPSLRENDFIEIELDRQELTYQELLRVCCCELGVNPDQVEKIRKLPNTLLRKDKDVARLQDFQELELVLMISENNFLFRNAASTLTERPCYNRRASKLTY [ANKRD40] | -0.00743 | -0.0058
MALRSAQGDGPTSGHWDGGAEKADFNAKRKKKVAEIHQALNSDPTDVAALRRMAISEGGLLTDEIRRKVWPKLLNVNANDPPPISGKNLRQMSKDYQQVLLDVRRSLRRFPPGMPEEQREGLQEELIDIILLILERNPQLHYYQGYHDIVVTFLLVVGERLATSLVEKLSTHHLRDFMDPTMDNTKHILNYLMPIIDQVNPELHDFMQSAEVGTIFALSWLITWFGHVLSDFRHVVRLYDFFLACHPLMPIYFAAVIVLYREQEVLDCDCDMASVHHLLSQIPQDLPYETLISRAGDLFVQFPPSELAREAAAQQQAERTAASTFKDFELASAQQRPDMVLRQRFRGLLRPEDRTKDVLTKPRTNRFVKLAVMGLTVALGAAALAVVKSALEWAPKFQLQLFP [TBC1D20] | -0.0896 | -0.427
